{"source": "paper PMC2582960", "about": "“A Structural Model of the Staphylococcus aureus ClfA–Fibrinogen Interaction Opens New Avenues for the Design of Anti-Staphylococcal Therapeutics” (PLoS Pathogens, 2008)", "parents": {"B1": {"name": "unnamed (parent)", "chain 1": "GEGQQHHLGGAKQAGDV", "chain 2": "GTDITNQLTNVTVGIDSGTTVYPHQAGYVKLNYGFSVPNSAVKGDTFKITVPKELNLNGVTSTAKVPPIMAGDQVLANGVIDSDGNVIYTFTDYVNTKDDVKATLTMPAYIDPENVKKTGNVTLATGIGSTTANKTVLVDYEKYGKFYNLSIKGTIDQIDKTNNTYRQTIYVNPSGDNVIAPVLTGNLKPNTDSNALIDQQNTSIKVYKVDNAADLSESYFVNPENFEDVTNSVNITFPNPNQYKVEFNTPDDQITTPYIVVVNGHIDPNSKGDLALRSTLYGYNSNIIWRSMSWDNEVAFNNGSGSGDGIDKPVVP"}}, "data": [{"variants_of": "B1", "assay": "solid-phase competition (inhibition) assay", "conditions": "with partner chain of the complex shown;; read off a plot", "values": [{"variant": "chain 1 G10A", "response (Absorbance (405 nm))": 0.25}, {"variant": "chain 1 H7A", "response (Absorbance (405 nm))": 0.28}, {"variant": "chain 1 V17A", "response (Absorbance (405 nm))": 0.13}, {"variant": "chain 1 Q13A", "response (Absorbance (405 nm))": 0.29}, {"variant": "chain 1 Q5A", "response (Absorbance (405 nm))": 0.23}, {"variant": "chain 1 G3A", "response (Absorbance (405 nm))": 0.2}, {"variant": "chain 1 A14S", "response (Absorbance (405 nm))": 0.29}, {"variant": "chain 1 E2A", "response (Absorbance (405 nm))": 0.21}, {"variant": "chain 1 H6A", "response (Absorbance (405 nm))": 0.31}, {"variant": "chain 1 G9A", "response (Absorbance (405 nm))": 0.21}, {"variant": "chain 1 Q4A", "response (Absorbance (405 nm))": 0.2}, {"variant": "chain 1 G15A", "response (Absorbance (405 nm))": 0.28}, {"variant": "chain 1 L8A", "response (Absorbance (405 nm))": 0.15}, {"variant": "chain 1 A11S", "response (Absorbance (405 nm))": 0.11}, {"variant": "chain 1 G1A", "response (Absorbance (405 nm))": 0.25}, {"variant": "chain 1 K12A", "response (Absorbance (405 nm))": 0.23}]}]}
